Assay [1] has as its target S267E/L328F variant of human IgG1 (human). Nature of the assay: SPR; Biacore; antibody variants captured on a CM5 chip with immobilised antigen peptide or protein A/G, FcγR injected; kinetic analysis by global fitting with a 1:1 Langmuir model (KD).
Assay [2] deals with V12 variant of human IgG1 (human). Nature of the assay: SPR; KD for soluble hFcRn at pH 6.0; as described previously (Igawa et al., 2010).
Assay [3] addresses wild-type human IgG1 (human). The assay is described as above.
Assay [4] addresses human FcγRIIa^H131, extracellular region (UniProt P12318). Kind of assay: binding screen of single-substitution variants (method not named in legend). The following applies: read off a plot.
UniProt P12318, sequence (P12318 34-217): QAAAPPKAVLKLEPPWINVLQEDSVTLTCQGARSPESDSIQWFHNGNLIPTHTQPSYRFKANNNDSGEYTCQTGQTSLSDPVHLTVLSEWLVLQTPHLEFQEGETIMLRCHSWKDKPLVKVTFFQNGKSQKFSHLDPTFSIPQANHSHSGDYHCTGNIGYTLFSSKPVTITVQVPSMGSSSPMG
Assay [5] has as its target human FcγRIIb, extracellular region (UniProt P31994). The description is as above. To be noted: read off a plot.
UniProt P31994, sequence (P31994 43-217): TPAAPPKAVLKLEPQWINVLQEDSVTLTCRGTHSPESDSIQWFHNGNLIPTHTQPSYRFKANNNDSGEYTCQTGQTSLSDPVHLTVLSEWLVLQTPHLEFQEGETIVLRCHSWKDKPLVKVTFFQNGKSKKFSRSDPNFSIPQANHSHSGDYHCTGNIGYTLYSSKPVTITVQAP
Assay [6] has as its target human FcγRIIa^R131, extracellular region. The description is as above. To be noted: read off a plot.

“human FcγRIIa^R131, extracellular region (receptor)”: the fold increase in affinity over IgG1, KD (IgG1)/KD (Fc variant) in assay [1] was determined as 864 fold.

Consider “recombinant, soluble human FcRn (from UniProt P55899 24-297) (complex)”, for which the Kd was determined as 1400 nM in assay [2] and 1500 nM in assay [3].

Consider wild-type human IgG1 L328E, for which the percent of parent (template antibody = 100) in assay [4] was found to be 15; in assay [5], 180.

Regarding wild-type human IgG1 L328F, the results for the percent of parent (template antibody = 100) in assay [4], in assay [6] and in assay [5] were 53, 190 and 300, respectively.

On to wild-type human IgG1 P238D, for which the percent of parent (template antibody = 100) stood at 2 in assay [4], 12 in assay [6] and 210 in assay [5].

For wild-type human IgG1 S267E, the values for the percent of parent (template antibody = 100) in assay [4], in assay [6] and in assay [5] were 100, 190 and 410, respectively.

For the origin of these results see PMC3785249.
